# According to the Immune Epitope Database (IEDB):
# How the values were obtained:
# [1] = biological target: HLA-A*30:01; test: IEDB peptide-MHC binding, purified MHC/competitive/radioactivity; filed as Kd, often an IC50 or EC50 that approximates it; ≥ and ≤ were set here for values at or beyond the usual limits of such assays
# [2] = biological target: HLA-B*07:02; test: as above
# [3] = biological target: HLA-B*35:01; test: as above
# [4] = biological target: HLA-B*51:01; test: as above
# [5] = biological target: HLA-B*53:01; test: as above
# [6] = biological target: HLA-B*54:01; test: as above
# [7] = biological target: HLA-A*26:01; test: as above
# [8] = biological target: HLA-A*24:02; test: IEDB peptide-MHC binding, purified MHC/competitive/fluorescence; ≥ and ≤ were set here for values at or beyond the usual limits of such assays
# [9] = biological target: HLA-A*01:01; test: IEDB peptide-MHC binding, purified MHC/competitive/radioactivity; filed as Kd, often an IC50 or EC50 that approximates it; ≥ and ≤ were set here for values at or beyond the usual limits of such assays
# [10] = biological target: HLA-A*02:01; test: IEDB peptide-MHC binding, purified MHC/competitive/fluorescence; filed as Kd, often an IC50 or EC50 that approximates it; ≥ and ≤ were set here for values at or beyond the usual limits of such assays
# [11] = biological target: HLA-A*02:02; test: IEDB peptide-MHC binding, purified MHC/competitive/radioactivity; filed as Kd, often an IC50 or EC50 that approximates it; ≥ and ≤ were set here for values at or beyond the usual limits of such assays; settings: source organism: Vaccinia virus WR
# [12] = biological target: HLA-A*02:03; test: as above; settings: source organism: Vaccinia virus WR
# [13] = biological target: HLA-A*02:06; test: as above; settings: source organism: Vaccinia virus WR
# [14] = biological target: HLA-A*02:01; test: IEDB peptide-MHC binding, purified MHC/competitive/fluorescence; ≥ and ≤ were set here for values at or beyond the usual limits of such assays
# [15] = source organism: Vaccinia virus WR
# [16] = source organism: Dengue virus 2 Jamaica/1409/1983
# [17] = source organism: Mammarenavirus lassaense
# [18] = source organism: Dengue virus 4 Dominica/814669/1981
# [19] = source organism: Dengue virus 3 Martinique/1243/1999
# [20] = source organism: Dengue virus 1 Brazil/97-11/1997
# [21] = source organism: Zaire ebolavirus
# [22] = source organism: Dengue virus 4 Philippines/H241/1956
# [23] = source organism: Human alphaherpesvirus 2
# [24] = source organism: Vaccinia virus
# [25] = source organism: Sudan ebolavirus
# [26] = source organism: SARS coronavirus Tor2
# [27] = source organism: Mammarenavirus brazilense
# [28] = source organism: Mammarenavirus machupoense
sequence,measurement,setting,value
AAMYQYIFL,Kd,[1]; [15],7.53 nM
AVSRGSAKLR,Kd,[1]; [16],1210 nM
CPKIFNNNY,Kd,[2]; [15],≥ 72900 nM
same,Kd,[3]; [15],160 nM
same,Kd,[4]; [15],≥ 77.5 µM
same,Kd,[5]; [15],331 nM
same,Kd,[6]; [15],13 µM
CPNCYDSVM,Kd,[2]; [17],205 nM
same,Kd,[3]; [17],7.87 nM
same,Kd,[4]; [17],5.71 µM
same,Kd,[5]; [17],79.5 nM
same,Kd,[6]; [17],4.5 µM
CTKHSKDFA,Kd,[1]; [15],231 nM
DARIYSDPLA,Kd,[1]; [16],744 nM
DPEYFDNERI,Kd,[2]; [15],≥ 69600 nM
same,Kd,[3]; [15],≥ 34800 nM
same,Kd,[4]; [15],3.86 µM
same,Kd,[5]; [15],1740 nM
same,Kd,[6]; [15],2.26 µM
DTVTYKCPL,Kd,[7]; [18],1.26 µM
EFLDYMPSM,Kd,[7]; [19],16.2 µM
ESALNDTWKI,Kd,[7]; source organism: Dengue virus 2 Peru/IQT2913/1996,≥ 69.7 µM
ETLGEKWKRQ,Kd,[7]; [20],12.3 µM
EWAFWETKK,IC50,[8]; [21],5.98 µM
EYVDYMPVM,Kd,[7]; [22],≥ 21.3 µM
FLGGNEVGKTY,Kd,[9]; source organism: Homo sapiens,198 nM
FTTNIWLKL,Kd,[9]; [16],1330 nM
GPHETITAL,Kd,[2]; [23],1.4 nM
same,Kd,[3]; [23],797 nM
same,Kd,[4]; [23],≥ 77.5 µM
same,Kd,[5]; [23],3350 nM
same,Kd,[6]; [23],4.85 µM
GQLASMVKL,Kd,[10]; source organism: Escherichia coli 536,78.2 nM
HIKTIAVSV,Kd,[11],3.08 µM
same,Kd,[12],9.6 nM
same,Kd,[13],1550 nM
same,Kd,[1]; [15],66.8 nM
HPFIYVIRHV,Kd,[2]; [15],11700 nM
same,Kd,[3]; [15],7040 nM
same,Kd,[4]; [15],1.02 µM
same,Kd,[5]; [15],2010 nM
same,Kd,[6]; [15],0.00271 µM
HTIENSTAN,Kd,[7]; [19],6.99 µM
ICQLIIQAF,IC50,[8]; [21],0.446 µM
IFGNLSPET,IC50,[14]; [24],47.3 µM
same,IC50,[8]; [24],14 µM
ITFLRVLSIP,Kd,[1]; [22],828 nM
ITTAVKTVL,IC50,[14]; [25],55.3 µM
same,IC50,[8]; [25],37.4 µM
ITVIDLDPIP,Kd,[1]; [16],295 nM
KGRRQYFYG,Kd,[1]; [15],2.85 nM
KKKTWLVHK,Kd,[1]; [22],470 nM
KLIIDREVV,IC50,[8]; source organism: Vaccinia virus Copenhagen,≥ 137 µM
same,Kd,[10]; [15],1790 nM
KMRRERAAY,Kd,[1]; [15],3.04 nM
KRTLTPQPME,Kd,[1]; [19],15100 nM
KSRRLNLFS,Kd,[1]; [15],3.28 nM
KTSFHIIFL,Kd,[1]; [15],25 nM
LGADLDAVI,IC50,[14]; [15],20.5 µM
same,IC50,[8]; [15],7.66 µM
LPFYSNVTGF,Kd,[2]; [26],563 nM
same,Kd,[3]; [26],11.5 nM
same,Kd,[4]; [26],0.861 µM
same,Kd,[5]; [26],79.8 nM
same,Kd,[6]; [26],0.132 µM
LPSLEYGANY,Kd,[2]; [15],≥ 45100 nM
same,Kd,[3]; [15],15.1 nM
same,Kd,[4]; [15],≥ 69.6 µM
same,Kd,[5]; [15],13.3 nM
same,Kd,[6]; [15],0.96 µM
LPTSIVVPI,Kd,[2]; [27],124 nM
same,Kd,[3]; [27],6.09 nM
same,Kd,[4]; [27],0.0758 µM
same,Kd,[5]; [27],7.51 nM
same,Kd,[6]; [27],0.0177 µM
LSRNKKPRI,Kd,[1]; [20],7690 nM
LVSIPRTNIV,Kd,[10]; source organism: Variola virus,279 nM
MLNNSLYYM,Kd,[2]; [28],≥ 77400 nM
same,Kd,[3]; [28],8710 nM
same,Kd,[4]; [28],≥ 36.7 µM
same,Kd,[5]; [28],9770 nM
same,Kd,[6]; [28],≥ 36.7 µM
MPNESRVKQW,Kd,[2]; [15],2390 nM
same,Kd,[3]; [15],2290 nM
same,Kd,[4]; [15],≥ 69.6 µM
same,Kd,[5]; [15],30.4 nM
same,Kd,[6]; [15],5.36 µM
MSVISNPSK,Kd,[1]; [15],19.7 nM
NAICSAVPVD,Kd,[1]; [20],12100 nM
NPKASTISWM,Kd,[2]; [15],94.7 nM
same,Kd,[3]; [15],7660 nM
same,Kd,[4]; [15],≥ 69.6 µM
same,Kd,[5]; [15],8150 nM
same,Kd,[6]; [15],≥ 35.9 µM
NSALTLHWF,Kd,[9]; [18],2320 nM
NSEQGGKAY,Kd,[9]; [20],482 nM
NSRSTSLSV,Kd,[1]; [16],14.9 nM
